pKd: −log10 of the molar value. Each block holds one sequence with its values, some of them ahead of it.
How the values were obtained:
Test in all cases: IEDB peptide-MHC binding, purified MHC/competitive/radioactivity; filed as Kd, often an IC50 or EC50 that approximates it; ≥ and ≤ were set here for values at or beyond the usual limits of such assays
HLA-A*02:02 = biological target: HLA-A*02:02
HLA-A*02:03 = biological target: HLA-A*02:03
HLA-A*02:06 = biological target: HLA-A*02:06
HLA-A*03:01 = biological target: HLA-A*03:01
HLA-A*11:01 = biological target: HLA-A*11:01
HLA-A*31:01 = biological target: HLA-A*31:01
HLA-A*33:01 = biological target: HLA-A*33:01
HLA-A*68:01 = biological target: HLA-A*68:01
[1] = source organism: Vaccinia virus WR
[2] = source organism: SARS coronavirus Tor2
[3] = source organism: Mammarenavirus guanaritoense
[4] = source organism: Mammarenavirus machupoense
[5] = source organism: Vaccinia virus Copenhagen
[6] = source organism: Mammarenavirus lassaense
[7] = source organism: Mammarenavirus juninense

Sequence: KAMHDKKIDI
pKd (HLA-A*02:02; [1]): ≤ 4.15
pKd (HLA-A*02:03; [1]): ≤ 4.34
pKd (HLA-A*02:06; [1]): ≤ 4.58

Sequence: YALCTLLHL
pKd (HLA-A*02:02; [2]): 5.88
pKd (HLA-A*02:03; [2]): 6.11
pKd (HLA-A*02:06; [2]): 8.82

pKd (HLA-A*02:03; source organism: Homo sapiens): 8.96
Sequence: FMECNLNEL

Sequence: EIVKNIREGT
pKd (HLA-A*02:02; [1]): ≤ 4.55
pKd (HLA-A*02:03; [1]): 5.07
pKd (HLA-A*02:06; [1]): ≤ 4.22

Sequence: FLAFLLFLVL
pKd (HLA-A*02:02; [2]): 7.88
pKd (HLA-A*02:03; [2]): 6.61
pKd (HLA-A*02:06; [2]): 5.70

Sequence: IIGHIGHHYI
pKd (HLA-A*02:02; [1]): 6.40
pKd (HLA-A*02:03; [1]): 6.73
pKd (HLA-A*02:06; [1]): 5.87

Sequence: KILSDENYL
pKd (HLA-A*02:02; [1]): 6.71
pKd (HLA-A*02:03; [1]): 5.93
pKd (HLA-A*02:06; [1]): 7.56

Sequence: IVLEFFMMVL
pKd (HLA-A*02:06; source organism: Dengue virus 3 Martinique/1243/1999): 6.97

Sequence: KVVGLYGNGV
pKd (HLA-A*02:06; source organism: Dengue virus 2 Jamaica/1409/1983): 7.93

Sequence: YALINLVQYR
pKd (HLA-A*03:01; [1]): 4.93
pKd (HLA-A*11:01; [1]): 5.16
pKd (HLA-A*31:01; [1]): 6.24
pKd (HLA-A*33:01; [1]): 5.90
pKd (HLA-A*68:01; [1]): 7.66

Sequence: NYTRFWYINH
pKd (HLA-A*03:01; [3]): 5.04
pKd (HLA-A*11:01; [3]): 4.91
pKd (HLA-A*31:01; [3]): 5.87
pKd (HLA-A*33:01; [3]): 7.31
pKd (HLA-A*68:01; [3]): 5.38

Sequence: LNNSFYYMR
pKd (HLA-A*03:01; [4]): ≤ 4.11
pKd (HLA-A*11:01; [4]): 5.23
pKd (HLA-A*31:01; [4]): 8.33
pKd (HLA-A*33:01; [4]): ≤ 4.66
pKd (HLA-A*68:01; [4]): 7.82

Sequence: VTTKDYFSFK
pKd (HLA-A*03:01; [1]): 7.58
pKd (HLA-A*11:01; [1]): 7.96
pKd (HLA-A*31:01; [1]): 6.25
pKd (HLA-A*33:01; [1]): 5.14
pKd (HLA-A*68:01; [1]): 6.81

Sequence: ALCTLLHLHR
pKd (HLA-A*03:01; [2]): 6.52
pKd (HLA-A*11:01; [2]): 6.33
pKd (HLA-A*31:01; [2]): 7.29
pKd (HLA-A*33:01; [2]): 6.40
pKd (HLA-A*68:01; [2]): 5.47

Sequence: KSTSPTRTWK
pKd (HLA-A*03:01; [5]): 7.95
pKd (HLA-A*11:01; [5]): 7.66
pKd (HLA-A*31:01; [5]): 7.00
pKd (HLA-A*33:01; [5]): 5.16
pKd (HLA-A*68:01; [5]): 6.33

Sequence: ASCDAIMTR
pKd (HLA-A*03:01; [2]): 4.71
pKd (HLA-A*11:01; [2]): 7.10
pKd (HLA-A*31:01; [2]): 7.09
pKd (HLA-A*33:01; [2]): 7.08
pKd (HLA-A*68:01; [2]): 5.84

Sequence: RSSPPIPMSR
pKd (HLA-A*03:01; [1]): 8.06
pKd (HLA-A*11:01; [1]): 8.83
pKd (HLA-A*31:01; [1]): 8.95
pKd (HLA-A*33:01; [1]): 5.80
pKd (HLA-A*68:01; [1]): 6.61

Sequence: NSTTDAEACY
pKd (HLA-A*03:01; [1]): ≤ 4.15
pKd (HLA-A*11:01; [1]): 4.75
pKd (HLA-A*31:01; [1]): ≤ 4.15
pKd (HLA-A*33:01; [1]): ≤ 4.15
pKd (HLA-A*68:01; [1]): 5.13

Sequence: DSEPISILDR
pKd (HLA-A*03:01; [1]): ≤ 4.15
pKd (HLA-A*11:01; [1]): ≤ 4.21
pKd (HLA-A*31:01; [1]): ≤ 4.28
pKd (HLA-A*33:01; [1]): 5.34
pKd (HLA-A*68:01; [1]): 6.29

Sequence: QCKDLCHMH
pKd (HLA-A*03:01; [6]): ≤ 4.14
pKd (HLA-A*11:01; [6]): ≤ 4.11
pKd (HLA-A*31:01; [6]): 6.28
pKd (HLA-A*33:01; [6]): 4.91
pKd (HLA-A*68:01; [6]): 5.82

Sequence: FSGKSTELIR
pKd (HLA-A*03:01; [1]): ≤ 4.42
pKd (HLA-A*11:01; [1]): 4.77
pKd (HLA-A*31:01; [1]): 5.72
pKd (HLA-A*33:01; [1]): 5.75
pKd (HLA-A*68:01; [1]): 6.06

Sequence: YIAVANCVR
pKd (HLA-A*03:01; [1]): ≤ 4.11
pKd (HLA-A*11:01; [1]): 4.86
pKd (HLA-A*31:01; [1]): 7.85
pKd (HLA-A*33:01; [1]): 6.55
pKd (HLA-A*68:01; [1]): 8.17

Sequence: KLSAGVEFLK
pKd (HLA-A*03:01; [2]): 7.83
pKd (HLA-A*11:01; [2]): 7.55
pKd (HLA-A*31:01; [2]): 6.29
pKd (HLA-A*33:01; [2]): 5.21
pKd (HLA-A*68:01; [2]): 7.00

Sequence: SLYMAISPK
pKd (HLA-A*03:01; [2]): 7.87
pKd (HLA-A*11:01; [2]): 7.66
pKd (HLA-A*31:01; [2]): 6.00
pKd (HLA-A*33:01; [2]): ≤ 4.31
pKd (HLA-A*68:01; [2]): 5.66

Sequence: KQLCYCPASK
pKd (HLA-A*03:01; [1]): 7.57
pKd (HLA-A*11:01; [1]): 7.86
pKd (HLA-A*31:01; [1]): 7.51
pKd (HLA-A*33:01; [1]): ≤ 4.51
pKd (HLA-A*68:01; [1]): 4.95

pKd (HLA-A*02:06; source organism: Homo sapiens): ≤ 4.36
Sequence: ELVKHGLRAL

Sequence: VFFTASLFLH
pKd (HLA-A*03:01; [7]): 4.98
pKd (HLA-A*11:01; [7]): 5.00
pKd (HLA-A*31:01; [7]): 6.50
pKd (HLA-A*33:01; [7]): 6.79
pKd (HLA-A*68:01; [7]): ≤ 4.64

pKd (HLA-A*02:03; source organism: Homo sapiens): 8.98
pKd (HLA-A*02:06; source organism: Homo sapiens): ≤ 4.16
Sequence: GLKSKTHAVL

Sequence: TLLPLTQYNR
pKd (HLA-A*03:01; [2]): 5.14
pKd (HLA-A*11:01; [2]): 5.09
pKd (HLA-A*31:01; [2]): 5.87
pKd (HLA-A*33:01; [2]): 5.34
pKd (HLA-A*68:01; [2]): 5.47

Sequence: KSIENKHQRR
pKd (HLA-A*03:01; [1]): 4.95
pKd (HLA-A*11:01; [1]): 6.70
pKd (HLA-A*31:01; [1]): 9.22
pKd (HLA-A*33:01; [1]): 5.03
pKd (HLA-A*68:01; [1]): 4.95

Sequence: NSTCYVFGLY
pKd (HLA-A*03:01; [1]): 6.79
pKd (HLA-A*11:01; [1]): 7.71
pKd (HLA-A*31:01; [1]): 5.49
pKd (HLA-A*33:01; [1]): 5.05
pKd (HLA-A*68:01; [1]): 8.05

Sequence: KLSYGIATVR
pKd (HLA-A*03:01; [2]): 6.06
pKd (HLA-A*11:01; [2]): 5.85
pKd (HLA-A*31:01; [2]): 6.56
pKd (HLA-A*33:01; [2]): 4.82
pKd (HLA-A*68:01; [2]): 7.05

Sequence: TLATGPVLTL
pKd (HLA-A*02:03; source organism: Dengue virus 4 Philippines/H241/1956): 7.55

Sequence: FFTELENKK
pKd (HLA-A*03:01; [1]): ≤ 4.11
pKd (HLA-A*11:01; [1]): 5.21
pKd (HLA-A*31:01; [1]): ≤ 4.59
pKd (HLA-A*33:01; [1]): ≤ 4.51
pKd (HLA-A*68:01; [1]): 5.47

Reference: the Immune Epitope Database (IEDB)
